Consider one molecule from paper doi:10.1101/2020.06.06.138156 (bioRxiv, 2020).

The target of this experiment is T1, GST-His-hnRNP L RRM2 (162-321) (human, UniProt P14866 162-321).
T1 sequence: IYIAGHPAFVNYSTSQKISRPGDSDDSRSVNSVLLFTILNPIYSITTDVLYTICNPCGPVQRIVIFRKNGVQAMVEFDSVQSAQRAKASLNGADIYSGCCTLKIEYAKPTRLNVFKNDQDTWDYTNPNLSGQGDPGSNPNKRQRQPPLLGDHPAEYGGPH
The experiment in a line: pull-down.

B1: FLAG-SETD2 SHI (2114-2263) (domain or fragment)
chain: NKLSTEERRKLFEQEVAQREAQKQQQQMQNLGMTSPLPYDSLGYNAPHHPFAGYPPGYPMQAYVDPSNPNAGKVLLPTPSMDPVCSPAPYDHAQPLVGHSTEPLSAPPPVPVVPHVAAPVEVSSSQYVAQSDGVVHQDSSVAVLPVPAPG
For the molecule B1, the binding result is on record as “binds”.
